In the DeepSol protein solubility set:

Test: soluble on expression in E. coli; label from the status in PepcDB or PDB records

Sequence	soluble on expression in E. coli
MVALRGKEIDAFLARPDAGRPIVLLYGPDAGLVRERADALIASAVDDPNDPFSLVRLDGDELSAEPSRLVDEAMTVPLFGGQRAIRVRAGSRSFASGIDTLAEMGVKDCRIVIEAGELRPESPLRKACERAKTAVAIGCYPDTERDLAKLMDDELRIANLRIAQDARAALMSFLGGDRQASRNELRKLTLYAHGKGEITLEDVMAVVADASELKLDPIVDGAFAGRPDIVETEFAKAMIAGTYPGVIISAAQRQAAWLHKSALAIADGQPASAVLDGGFPRLHFSRKPAVETALRNFSVARLAAIIEQLATAALDTRKQSTLAAAIAQRTLMAIAANAKRRGLEHHHHHH	not soluble
MNGEVMDELIQKLERVSQTSFIGSGKLMELSELVEMHEADVVIFNSELSATQVRNISKIVDARIIDLEHHHHHH	not soluble
MVCISRFLPVKGVQNINGKELKSIVGKKGKYFIDVRTVGEYRGNHMKGFQNIPLNDLASKANQLDKNKEVIVICQSGMRSKQAAKVLKKLGFQQVINVSGGMNSL	not soluble
MGSDKIHHHHHHMAHVGLAMHFRRDPNDRRKELTVSRFIEVVHKNAVASRNTADAFIKEMLHYNIAEYVAGGDGRTHPLQPTAATIERFTGWVTAHLRTLDHIDGGDRLGRYLDRPDMLATLQPLIADGLLASKPVREPHQTFSLFIWLNNGGIVMDWLMSGIDPDHAGLERIPTSVVSIGDFAKWLKLSRTHLGRKLRTAEELGSIGWLGQRGHSVMWVSHGFYEEYMTVQAAKLAVVDNAFKACFPPSQGDD	not soluble
MAHHHHHHMTNRGVVNAEELRGAVCAIVSRYQKTPQRRLLVCVAGRPGSGKTTIANILAEEARELLRKVSSDPRDHAENAVVVMPMDGYHLYRKTLHAMPNREEAIARRGAEWTFDARKLCRDLQAIRLPSETADKKGAPLYDDVFVPSFDHSVGDPKERDICVSGSAAIVIVEGNYLLYRGTPTWAEVNRCFDMGVFQACPAATCARRLCRRHMAAWGISEAEAMVRATGSDAMNGDLVETTGKNADIVLHSIESSI	soluble
MIGYVLNGEHEEIPYGELMALLEIFNYNGSVERLKRYVITEDSPAKDIVKRSGYIDEGHRIIFRYNLEEKSVDLVDKIVNDFINSFKDFVANIDYPDIDESKSYAVRVLKLHKDEFTKSIDSLRIEKEIGGIIKLKTNAKVNLTKPDILVRVVILENTFFISNVLEMRDREYFQKNRPHLRKYFHPGCMLPKLARAMVNLARVKEGDIVLDPFCGTGGFLIEAGLIGAKLIGCDIDWRMASGTLINLEEYNLLDKVIKVKRLDAKYVKEFLNELNIEKVDAIVTDPPYGISTAKKGEIEKILETLPEVIKDNGYFVFAYPKKIELDMELEGLYKVYIHKGLIRHIHVYKKI	soluble
ETDCRWDGCSQEFDSQEQLVHHINSEHIHGERKEFVCHWGGCSRELRPFKAQYMLVVHMRRHTGEKPHKCTFEGCRKSYSRLENLKTHLRSHTGEKPYMCEHEGCSKAFSNASDRAKHQNRTHSNEKPYVCKLPGCTKRYTDPSSLRKHVKTVHG	soluble
MTRFSGKVALVTGSSNGIGRATAVLLAQEGAKVTITGRNADRLEETRQEILKSGVPEDHVLSIATDLATEKGQDELVNSTIQKFGRLDILVNNAGAAFNDDQGRVGVDQDVSVYDRIMQINMRSVVTLTQKAKEHLVKAKGEVVNVSSIGAGPQAQPTFMYYAMSKAALDQYTRSAAIDLIQYGVRVNSVSPGAVVTGFGEAMGMPADMHEKYGHFMESRKECIPCGKMGQPIDIANIIAFLADRKLSSYIIGQSIVADGGSTLVMGMQAHNFMDLLKQ	not soluble
MGTNLPTEVGQILSAPTSIDYNYPTTGVWDASYDICLDSTPKTTGVNQQEIMIWFNHQGSIQPVGSPVGNTTIEGKNFVVWDGSNGMNNAMAYVATEPIEVWSFDVMSFVDHTATMEPITDSWYLTSIRAGLEPWSDGVGLGVDSFSAKVN	soluble
MNRIEHYHDWLRDAHAMEKQAESMLESMASRIDNYPELRARIEQHLSETKNQIVQLETILDRNDISRSVIKDSMSKMAALGQSIGGIFPSDEIVKGSISGYVFEQFEIACYTSLLAAAKNAGDTASIPTIEAILNEEKQMADWLIQNIPQTTEKFLIRSETDGVEAKK	soluble
MGSDKIHHHHHHMTDSKCYAAIDIGSNAVRLLIKKVKNNENLANKRLSKVMLLRVPLRLGFDVFSLGEVSDAKVMKLRRLMKAFRQLMKIYEVINYRACATSAMRDAQNGKSVIKKVWKDTGINIEVINGQEEARMIYNNHIECLEDRAGNYIYVDVGGGSTEINFLINGELVQSLSYNIGTVRMLSNSVREGSWEQMKSDLTRLTADFQGVNIIGSGGNINKLYRLADKKDKKQSRLPITSLQELYDKLKVLTLEQRMEEFNLKTDRADVIVPAAGIFLIIAGIVKAEYIHVPVIGLADGIIDNLYAIDLKTE	not soluble
MTIYVVTPTYARLVQKAELVRLSQTLSLVPRLHWLLVEDAEGPTPLVSGLLAASGLLFTHLVVLTPKAQRLREGEPGWVHPRGVEQRNKALDWLRGRGGAVGGEKDPPPPGTQGVVYFADDDNTYSRELFEEMRWTRGVSVWPVGLVGGLRFEGPQVQDGRVVGFHTAWEPSRPFPVDMAGFAVALPLLLDKPNAQFDSTAPRGHLESSLLSHLVDPKDLEPRAANCTRVLVWHTRTEKPKMKQEEQLQRQGRGSDPAIEV	soluble
MGSDKIHHHHHHKDEIKHLVSEWQGKEIRFPKDMVFARFATDTVDFTLPKSPHKVLVFVDSIGCTSCKLQLHRWKELIQYTDSITQGTVPFLFFFQSDDKKEIRYLLKKDNFDKPICMDQSDRLNELNHFPADGRFQTFLLDKDNKVVVIGNPIHNPNIRELYLKEITGKQPASQIQTTVKVEEASIQLGTIQMGESKEAVFRLTNTGNNPLVILDAATTCGCARPSFDKHPAKPGEILQVRVIMTPKDKGVFDETISVKCNTNQLIKLNIRGMAQ	not soluble
MLTQEQIDIIREGPDYFLESIWFRIGQLYGLSPGQIDHDSFEERKNDLFFLLGKLLDEGQIKIGNHKGNFISGPTPALVEMFRSSFPDSDEKAQAIWFITECPGGIVWVLKGQGEKGQDVYKWWLFKDEK	not soluble
MSTDLRALLEQARQQGDYTALLEQIPYAKLIGIECTQLGDELLFRLPANKDNIGNPLLPALHGGVIAGFMELAAALHLLILTGSPGVPKIIDFSLDYLRAGQFRDTFARCQVCRQGRRVANVAITAWQSTAEESIATARAHFKIEESTGPLEHHHHHH	soluble
MSRTLTPLLDRVCEPQDLRAFPESDLARLADELRAETIDVVSVTGGHLGAGLGVIELTVALHYVFNTPEDRIIWDVGHQAYPHKILTGRREKIRTLRQEGGLSGFTKRSESVYDPFGAGHSSTSISAGLGMAVASALKAEKRRNIVAVIGDGAMSAGMAYEAMNNAGALNARLIVVLNDNDMSIAPPTGAMSAHLARLVSRPAYRSLRERVKVLGEKLPKFFLDKARRSEEFARGFLVGGTLFEELGFYYVGPIDGHNLKHLLPVLKNVREYPTGPVLIHVVTHKGKGYAPAEASLDKYHGVNRFDIITGKQVKASSNVLPYTKVFSKALREEASYDDKIVAITAAMPTGTGLDFFAEKFPERMFDVGIAEQHAVTFAAGMACEGYKPFVAIYSTFLQRAYDQIIHDVSIQKLPVRFAIDRAGFVGADGATHAGSFDIVFLTTLPEFVVMAPSDEVELMHMVRTAAAYDQGPISFRYPRGEGIGMDLPQRGEILEIGKGRILHEGNRIALVCFGTRISEVLVAADELSAEGLSTTVADARFAKPLDKDLMRRLAREHEVLVTIEEGAIGGFGAHLLQFLAQEGLLEHGLKVRTLKLPDEYLNHGSQEKVLSRIGLDAVGIVNTVFSALGRKIRTVQRVRV	not soluble
MTYVDGFVLPVPEGKIDAYRQMAESAGKIWMEHGALQYKECVLEDAKPEMPEDAPETCKITPFGKLAGTKDGETVIFAFIVYKSREHRDEVNKKVMADPRMQEACDENNMPFDPSRMAYGGFKALVDL	not soluble
MLEPCTKRSELLYRMHLLSKEISHVFEQQTNMSFTKVEILFHIKQTPGQSQNRLKEKLYIDSASITRHLKRMEEQGLIVRKKQDENKRYTYLFLTPAGEAELTSLLTEKEKFQTGALEGFSEDEVSALLKSVTKMMNNVEKLEEKLK	not soluble
MAAASISAIGCNQTLIGTSFYGGWGSSISGEDYQTMLSKTVAPPQQARVSRKAIRAVPMMKNVNEGKGLFAPLVVVTRNLVGKKRFNQLRGKAIALHSQVITEFCKSIGADAKQRQGLIRLAKKNGERLGFLA	not soluble
RSPYDMEVIGQTIDDAAGEAFDKCAKVMGLGYPGGPIVNKLASEGNPDAFRFARPHVSGYDYSFSGLKTSFLYTLRDKLAEDPDFIEKNKADLCASLQHTVIDILMKKLRQAAKDHSIKQVALAGGVSANTGLRDAFHDHARRYGWTVFIPKFAYTTDNAAMVAISGYYKYLQGDFCPIDAVPFSRITV	not soluble
MSSRLDQLVNKYNKSCENVSFAEHMILKDKYESLVIEHESLIKTLELLEKTHGFTVEDLVTKQKEALEKKEVIEKWENKFGEMEKKLKTVERSIEYIMSVDVQTGVDSGSANRPNVKNSYQRGIF	not soluble
MSLGDQTLVRELSPLKNKGESTFRMGLYIRDSAAGVGTLTFYDPVSKKYGALGHVISDVDTKKPIVVHDGQIIRSSVTSIDKGSNGDPGEKLASFSNQRNTLGTIEKNSSFGIFGTLTEKDLKNHVSDEALPVTLSNHVKEGPAKILTVVEGEKVEEFDIEIVSSVPQKQPATKGLVIKVTDPKLLNTTGGIVQGMSGSPIIQDGKLVGAVTHVFVNDPTSGYGCHISWMLEEAGITFDQSKAKASEGHHHHHH	soluble
MGSDKIHHHHHHLSPEDYYGSNDFWNQKSQVEMFMTGIHADLRDKYQMPVTLGEFRSEILISDVTSMGEGVYGPPMTNNLLTKDNTGIDDWYEVYPNIMHINLFIRNVDKEIDYLTGTEKSFYLGQAYGLRAYYYFYLYRTFGGVPLETEPKVTEGSIDITQLYKARSTPEETLEFIKEDINKSEAFFNESDKKMSNQYEWSYHATELLKAKIYMWSAKVTTGLPDDDIAGDHIATLTAVDPNNSDLLTAKKALLNLVNQQFELLPNFADLWTPEGKKNKEIIFALCFNKNELTNWGANWFYNVALFTNATDLDGNKYGPDPLKLLTAGPLRYEYKVPFIEIYDKEDTRLDATFFQYMFEGKIRGACWKKLMGHTDGGTHYYDSDVPVYRYADVLLMLAECENGLGAPDKCAAYINEVRKRAYGDKFEQHKYIAGDYADNEWAILQERDKEFVGEGSRWFDLLRLRDSNGKPFVFSVKAHYGSSLPILTEDKAYMMLWPVNVEVLNGDPEIKQTPGYE	not soluble
MVYYIYHSAFVIEVEKSILIFDFYKFPSNKKKEKEEFFNRFIKRIDKKVYIFSTHSHSDHFNKEILTWLEMNENIKYILSDDIRIYKHKNFYFTKEGDSFELDNLKISTFGSTDLGSSFYVNTENKNIFHSGDLHFWHWEDDTPEEEKTMYDAYMVQLEKIKKLDRIDIAFVPVDPRLGVNTLEGVELFYKILKPKIIIPMHFSDDYSQMKNFIEKFKYNDDVKIIEIKDSMEKVLELEHHHHHH	not soluble
MAQALWTRNKSEITDEEYKEFYKHIAHDFNDPLTWSHNRVEGKQEYTSLLYIPSQAPWDMWNRDHKHGLKLYVQRVFIMDDAEQFMPNYLRFVRGLIDSSDLPLNVSREILQDSTVTRNLRNALTKRVLQMLEKLAKDDAEKYQTFWQQFGLVLKEGPAEDFANQEAIAKLLRFASTHTDSSAQTVSLEDYVSRMKEGQEKIYYITADSYAAAKSSPHLELLRKKGIEVLLLSDRIDEWMMNYLTEFDGKPFQSVSKVDESLEKLADGDLGTLVPRGSMAISDPNSSSVDKLAAALEHHHHHH	soluble
MSLASIMFGVFVHALECSRPVGLVQAKLLLWTLTASIMVIILSEEGEVAEQLEFFPVQSPCRGICQSDERGFCRGCFRSRDERFNWNKMSDGEKQEVLRLCRQRLMRKLRANKPASSDEPEQPSLFEGHHHHHH	not soluble
